# Article PMC6817362
# Target: Recombinant mouse SIGN-R1 Fc chimera protein, extracellular domain (mouse) (UniProt Q8CJ91)
# Experiment: SPR
# Sequence of UniProt Q8CJ91 (Q8CJ91 74-325, change not shown): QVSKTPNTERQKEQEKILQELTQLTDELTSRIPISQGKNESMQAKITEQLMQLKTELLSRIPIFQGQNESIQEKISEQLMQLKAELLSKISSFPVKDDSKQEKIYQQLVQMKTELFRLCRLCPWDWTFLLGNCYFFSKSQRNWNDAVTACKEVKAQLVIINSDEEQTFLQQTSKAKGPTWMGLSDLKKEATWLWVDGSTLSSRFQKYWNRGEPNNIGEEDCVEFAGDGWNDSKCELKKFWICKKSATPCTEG
substance,measurement,value
Hemagglutinin HA from Influenza A H1N1 (A/Puerto Rico/8/34) (from UniProt P03452) (natural protein),Kd,142 nM
